Assay: soluble on expression in E. coli; label from the status in PepcDB or PDB records

Sequence	soluble on expression in E. coli
MSLEYNLTTTEIELVNVTASWDEGIGELFEKIKQENKANGQPNGDAGLFFTNLYVTPVLKNISLYLEKGQMLAVAGSTGSGKSSLLMMILGELVPSEGKIRHSGRISFSPQTSWIMPGTIRDNILFGLTYDEFRYTSVIKACQLEEDLALLPEKDKTPLMEGGVTLSGGQRARIGLARAVYKDADLYLLDSPFTHLDIVTEKEIFERCLCKLLSSKTRIVVTSKLEHLKRADKILLLHNGVCYFYGSFSELQAKRPDFSSLLLGLEAYDNIKAERRSSILTETLRRVSIDESTVFRGEGHHHHHH	soluble
MSLRTIVFDVDDTLYDQQQPFRNAMTKIFPNVATEDMHELYLRFRHHSDETFPKVLANEWSLDFMRFFRMNETLKDLNYPGISQEEGKIFQQVYEEELDNITMHPEVTKLLDTLQEKEIPMGIITNGPTDHQFKKVKQLNIEKWVPSQNIIISQSTGFQKPEKEIFDLACNQFCMEPEHTLYVGDSYDNDIVGARNGGWHSLWFNHRSRELPSCQPASHLAEVTCFTELCPTVEKLFNLEGHHHHHH	soluble
MSLNKIKRITAYKIDLPLKEGSYNWSEGKSVSVFDSTVIAVETENGTIGYGECCPLGPFYLPSYAEGVRAGIKELGPHLIGLDATNLFYLNHIMDRSLKGHPYVKSPIDVACWDIKGKTAGLPVSNLLGGVYDEDFILYRAISQDQPEAMADKVKEYRDQGYRRFQLKVGGNADEDIKRIRSVAEKMETGDKLIADANTGWLTHEAVRVVNGVSDIDVYIEQPCLSYDECFAVRKKTNHPFILDESINNMRTLLKAYHDQAMDAVNIKISKFGGITKAALARDICSELGIAMTIEDTWGGDIVTAAIAHLAHTTDPKLLFTATDFNSYVTVDIASGAPKRENGRMKSSKDPGLGIKPLSEVLGDSVVDIEGHHHHHH	not soluble
MFEFEQLPNEMQLEVLKRTEFRTIQSMKTVSKRVQHFIQLYQRYMLPIPIRQMFVTPEKISFTLANSNEINTINHDDMDKYLRGAKVDLLWLEMNGSEDEPIEFLQKVIQKTNFTRIDCLKLGSSKVECDVTKLENCMASLVCAELIVDWRFRVPEDFFNELHVEKLTRLTIGNQESRNFYHPLSGDHFRKFRGDWLEIGQNRLRSSDISTFLKNWKLGSISWIEMYNIVISFPIPELLILLKNESCQKTPTTWKVSRDLDEGKEELEIGFFKSTNFSKQPSLVIRQLKILEYLW	not soluble
LTSGNINIGNLKVGNDYPMRVLGEIVHVPWLSKEELEEKVNYYVESGADMIDLGMVSNEDYSKDLKQIIKTVRDITDKPVSVDTLNTKELIEAVNLDVDMILSVDSGNFDELLPYLKEKNTVSVVLPTNYKTNEVPKKISEKIQNMEKILEKFKENDLLAVADPILEPINNSGCNFTESVIACYEFKKRNNIPMFFGIGNVTELFDVDSNGVNASIAAIGQEIGGNILFTPEASKKCKFSIKELKTASKMLFLAKKRNSLP	not soluble
INMEEIREFAKNFKIRRLSLGLTQTQVGQAMTATEGPAYSQSAISRFEKLDITPKSAQKLKPVLEKWLNEAELRNQEGQQNLMEFVGGEPSKKRKRRTSFTPQAIEALNAYFEKNPLPTGQEITEMAKELNYDREVVRVWFSNRRQTLKNT	soluble
MTTGTEEARIPLDPFVTDLDGESARLRAAGPLAAVELPGGVPVWAVTHHAEAKALLTDPRLVKDINVWGAWRRGEIPADWPLIGLANPGRSMLTVDGAEHRRLRTLVAQALTVRRVEHMRGRITELTDRLLDELPADGGVVDLKAAFAYPLPMYVVADLMGIEEARLPRLKVLFEKFFSTQTPPEEVVATLTELASIMTDTVAAKRAAPGDDLTSALIQASENGDHLTDAEIVSTLQLMVAAGHETTISLIVNAVVNLSTHPEQRALVLSGEAEWSAVVEETLRFSTPTSHVLIRFAAEDVPVGDRVIPAGDALIVSYGALGRDERAHGPTADRFDLTRTSGNRHISFGHGPHVCPGAALSRMEAGVALPALYARFPHLDLAVPAAELRNKPVVTQNDLFELPVRLAHHHH	soluble
MPSLFKRSLLPKLRSFPLAAEAFTTLTGAAQFRRTLLEQIAQARRRIYIVALYLQQDEAGQEILDALHAAKAARPELEVVVVVDWLRAQRGLIGAGKQPGNSAWYQQMTRTHASEVPIYGVPVQTRELFGVLHLKGFIIDDCVLYSGASLNNVYLHKFDKYRFDRYHLLHNQALADSMHHLVQHGLVESRAVHRLDLPNLPTTRSLRNDIGDLRSRLKHATYDTTAGGLDKSGLSVSPLLGVGKGNPLNRVICELIAGAQRQLTICTPYFNLPLPVTREINRALERGVKIDIIVGDKTANDFYIPPSEPFKVIAALPYLYEISLRRFAKRHQKVIDNGQLNLHLWRDGDNTYHLKGMWVDERYTLLTGNNLNPRAFRLDLENALLLDDPKGELLQARNAEQAEIYRHTRRIEHFQYLDSLVDYPEAVGKFLRRVSRVRIERLLYRMLLEHHHHHH	not soluble
MSLSKNKLKTPHCMLNLTFNWLSFCEMRGTRDTVEDMFVCKANPVDNQACMAIFDGHGGSKTSYYACGVFIKLYTSAKMIFSKQWLRGTMRGISESVKTKLFPDGSTAAVAMFKDRKLITSTIGDSRIIVMTEDGKLKYENRVHKPTQREEFERVHEAGGSVYGFRLQNSLALSRTMGDIAVPGISAESEEDEVNLDEEDRWVIVGCDGVFDELPMSFVGELCKKAKSAIGLSHSLRTAAFAARSQDNITVVALDVKTLYSKVELASDMNSTMREGHHHHHH	not soluble
YNSLSFLMRHDMIAGFHWFGPWGRDTFISMPGVLLVSGRYNEARRVLEHYAERIQDGMIPNTQDVEALRFSADTSLWFIYAVQKYLEYAGDDDFARQMLVPIKSIITAYIKGNSMFHLDDDLVTLTGSPLTWMDAMVSGKPVTPRIGKPIEINALWYNALSFYSRTAHDITGEDTEMFSKLARRIKQKFRAKFIKGDAVLDVSDPDDMKFRPNFLIPYFLPYPLLNDRKFVDLAWEKLVTPYGLRTLSPDDPDYVPTYSGPQPERDMAYHNGTVWPWLAGIFITAAVKTGYDKHALLEKFAPLFSMSRIPEIFDGSGTGIPKGCIMQAWSHGEIARAYFEDLRGGRS	not soluble
MSKKIILITGASSGFGRLTAEALAGAGHRVYASMRDIVGRNASNVEAIAGFARDNDVDLRTLELDVQSQVSVDRAIDQIIGEDGRIDVLIHNAGHMVFGPAEAFTPEQFAELYDINVLSTQRVNRAALPHMRRQKHGLLIWISSSSSAGGTPPYLAPYFAAKAAMDAIAVQYARELSRWGIETSIIVPGAFTSGTNHFAHSGVPDDHARQAEYEAGPNAGLGEEIKKAFAAIVPPDADVSLVADAIVRVVGTASGKRPFRVHVDPAEDGADVGFSVLDRLRAEMLHRVGLSDLLKPRALA	soluble
MGSDKIHHHHHHMDNNNSYLWPVTYDEVSHELTKWKFYKHFTKISGSVYLKNDLIDDPVLVTQALIKRCPQGVLRGYAALNRRGYQLFDDPWMPIISISGEPRTRKTTNVGKIIRRETPENLRRSGEFTLVSDSQALLDVFSLHGLDSFEHQVALIDHLIRQCPDLKDEIKKVPELRKHAEFTDEFAESPPESRLRVRLHMQGYRNFMPQVRVELEGRRFYLDLADPVWGVALEYNGGWHYTAEQRSKDAFRKNALKNAGWDVFEVTSKTLQSQQAWDYFFQQVRVAIQRKYADRKRRLPMQTVS	not soluble
MLHEIPKEEILEKLKNIGAKKVLIQSPEGLRREAEELAEFLEKNEIEVILHGEINYGACDPADHEARLLGCDALIHLGHSFMMLSLEVPTIFVPAFAKVNVVEALKKNLHEIKKLGKKIIVTTTAQHIHQLERAIEYLKSQGFEPVVGRGDNRVSWPSQVLGCNFSVAKVEGDGILFIGSGTFHPLGLALATGKRVLAVNPYSGDCQWINELAERFIRKRWAQIAKAMDAKRFGVVISTKRGQLRLNEAKRIIKLLKDHGREAKLIAMNDISYSKLEGFSFDAYVIVACPRVPIDDYENWRKPVLTPREVEILLGLREEYIFDEIPGGVREKDEPLGISLHSTRLEHHHHHH	not soluble
MGSDKIHHHHHHMTTAADLSVFEQLDLPDTSLTRDTFAFAAQATPAFIHDHCVRSYVFARAHAQNQGLRAGTDYDDELLFVSCVLHDLGLSEEGSNGDQRFEVDGADIAAAFLRERGVEEERIAVAWDAIALHTSEGIASRKGTEVALAHLGIATDILGIQRESLPAGLADEVHALLPRQDLAHGFSDLIITQAVAKPHKASPTNFIGDLLRRHLPYGAYPNWYDLIDAAGWGDKPVGVTARRRAETPQQVGTLFMEYLEAGDVEGLVSLYEPNAHFVPTPGTHLVGTDAIREAMRQMVDSGARLKLEQREIRQVDDIALVSNNAILTGIGPEPVVSTTTEILRRQPDGGWVHAVDDPFFS	not soluble
MSLEELLERVFSFSDVDKLIDFISYELQKPVILESADFFLLAYNSYYINHFDSANQQTIFSKKCPVQIFERFLKDGIIEKLKTEPEPFRVNKIESIGLNQRVVVSAKHKGEVMGYIWIQELDQNLTDEELDFLYETSFHVGKIIYKTNKLKQEKEEKAEDLIKRAIYQQFTSEKELRREAERINTVLPSMFSVVILHAANGDGEAVEDLKENIRSYLNLRDKVSHVLTIESNIVIVVASFSQKSSVSSAASEFINKLLTHFHFQKIPTPIYIGIGNEYNHLLKLGKSYTEALEVIKAAEITGNQENIPYEYAKLGIYRYLESIEQKNEFLEYENKDLALLKAKDEESSTELLKTLEVYLLNNCKTKPAAEQLFIHQNTLNYRIKQITEMTSIDLSDFRTRCQLYLDLMLMKKKEGGSHHHHHH	soluble
MGSDKIHHHHHHMSWHNKVVWSEGLFLRPQLFQQQERYLEHYAHRRAATLSPFFFGFSHYSLDSEALALGKVIVKSASGVFADGTPFDTPGSTPPPAPLTIRAEHLDQLIYLAVPVRVPNAEETTFDNAADSLARNFVFDTELRDTNSIGQGPKTVQLSNLRLRLVPEKELTDAWIGLALTRVKTIRADSSIVLDDTLIPPVAGFGASELLTSWLAKIHELTRLRANSLAIRLTGANGNAGTTAEVSDYLLLQTLNRYEPLLQHLRRVPTTSPADLYALLLSMAGELSTYLRTDSRRPLDSHPAYQHSTPHLCLKPLVDDTHVLLNAVLVRSAQSIELKELGHGMRNAVVDPVDMAGFTAVVLAVHAAMPPDLLQQQFAAQAKAGPSERLPDLVRGHLPGITLQALPVPPRQIPFNAGFVYYELARSGPLWDEVARHGGLALHVAGEFPSLKLELWGVRS	not soluble
MVIKDPRITRFRKMLAQATNYEQWKAAALELDFLEGNAEWKEDFASDLYHYELIYDRLSNLKQYRQQNDFERLKRALREGLHHDLGNMGNPALYTRSRVGTKHLIEEYITQVCESLDYLCDHPVPGFPVYDKLQFFRDTLTSYGRPTLLLSGGASLGMFHFGVIKALWEKGLLPQVIAGSSIGAIIAGILGIHTDAEIPEMLVPESHNLKAWKWRGLLSAMRGTGLMDQDTLRRCLRENIGDYTFEEAYQRTGRSINISVSPVQAHQKARLLCGYTSPYLLVWSAALASAAVPGIFPPVTLMKKDLNGNSLPYMPRLKFVDGSVVSDLPIERLMHLYDVNFTIVSQTNPHVVPFLTDRGQDEKLSLTNLPSHLLKSEVQFHGQGVFDYLRKRVRPEILRQLSGQMYTIMAQRYSGDVTIAPNYSLRHFRRMLANPSPEYVREMILEGERATWPKISMIRSHARISKTLERCVRRLKQQNRRAAELEHHHHHH	not soluble
SNASYRSTQQITDFTKEILVNGEAVTAFDRQGDLPNVVVTPNFEAGVDQVVDQLAMNDSERDTTAIIGKSLAECEALTKALKARGEQVTLIQTENQRLAPGVIVVPSFLAKGLEFDAVIVWNANQENYQREDERQLLYTICSRAMHELTLVAVGSLSPLLARVNHALYTLNEAK	soluble
GMTDAPADAPLDADARRAVKPVICYPNDSLPRPDLALYRAARASARKTGEVLVPPREGRCFEVKAGQFFRISSVEGPQVGDLNLHNLHDLTERFFSGKTRALHGTHVTTGERLWSNLPYLRPMATIIEDTLGWYGIDQYGGSVHDVIGTRCDPYTGNLLAGGHYHHCCHSNLTRALADHTGLPLHEAEMLVHDVLNVFMCTGFTRDTGQYFMKASPVRPGDYLEFFAEIDLLGNLSACPGGDCSSEHSSDTASCHPLLVEIFAPAEGMLGDWPSPSVNGYDRSHGR	soluble
